Measurements published in patent US20170240629A1 (Hoffmann-La Roche, published 2017).
Like-named read-outs stand apart in the source and are kept apart here.

T1: ANG2 (UniProt O15123 68-496, limits assumed)
T1 sequence (looked up): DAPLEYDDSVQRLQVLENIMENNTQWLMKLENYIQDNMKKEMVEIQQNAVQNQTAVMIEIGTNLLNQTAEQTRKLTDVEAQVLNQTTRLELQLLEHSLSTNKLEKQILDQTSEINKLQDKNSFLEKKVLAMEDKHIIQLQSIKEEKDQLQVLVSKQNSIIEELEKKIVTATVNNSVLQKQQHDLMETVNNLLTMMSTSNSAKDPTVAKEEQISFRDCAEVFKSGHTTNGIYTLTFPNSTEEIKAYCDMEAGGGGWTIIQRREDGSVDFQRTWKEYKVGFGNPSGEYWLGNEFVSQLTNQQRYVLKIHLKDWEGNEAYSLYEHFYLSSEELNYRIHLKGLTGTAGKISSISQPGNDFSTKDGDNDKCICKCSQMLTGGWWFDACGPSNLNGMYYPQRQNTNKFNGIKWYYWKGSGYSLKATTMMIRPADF

T2: human ANG2-RBD-mouse Fc-region fusion (human, UniProt O15123 275-496, limits assumed)
T2 construct: domain: RBD; also called human ANG2-RBD-murine Fc-region fusion; not shown: mouse Fc-region
T2 sequence (looked up): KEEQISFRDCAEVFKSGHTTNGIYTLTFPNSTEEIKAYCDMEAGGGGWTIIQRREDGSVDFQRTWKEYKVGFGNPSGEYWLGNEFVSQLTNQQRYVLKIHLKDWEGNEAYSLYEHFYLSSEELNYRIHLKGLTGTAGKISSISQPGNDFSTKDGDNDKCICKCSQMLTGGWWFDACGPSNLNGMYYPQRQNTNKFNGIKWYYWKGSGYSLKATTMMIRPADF


What was measured:
human PDGF-BB [1] = molecular target: T3, human PDGF-BB (human, UniProt P01127 82-190); assay: cell-based or functional assay
human PDGF-BB [2] = molecular target: T3, human PDGF-BB; assay: SPR; IgG
human PDGF-BB [3] = molecular target: T3, human PDGF-BB; assay: SPR (BIAcore B4000); PDGF-BB coupled on C1 chip, antibody injected; apparent KD (avidity)
Procedure: (§1) The binding analysis was carried out using a surface plasmon resonance spectroscopy-based technology applying a BIAcore B4000 system (GE Healthcare). […] Utilizing a read out time of 180 sec. association phase and 600 sec. dissociation phase the apparent kₐ and apparent kd were calculated. The apparent KD (avidity) was calculated using the BlAcore T200 v2.0 fitting software.

cynomolgus PDGF-BB [4] = molecular target: T4, cynomolgus PDGF-BB (cynomolgus, UniProt A0A2K5UX81 82-190); assay: as above
T4 construct: also called cynPDGF-BB
Procedure: as §1

human PDGF-BB [5] = molecular target: T3, human PDGF-BB; assay: competition ELISA; biotinylated human PDGF-BB with antibody on coated Fc-tagged PDGF-BB receptor (competitor)
Procedure: (§2) The IC₅₀ was calculated with a four parameter logistic model using GraphPad Prism 6.0 software.

human PDGF-BB [6] = molecular target: T3, human PDGF-BB; assay: SPR (BIAcore T200) kinetic screening; PDGF-BB coupled on C1 chip, antibody injected
human PDGF-BB [7] = molecular target: T3, human PDGF-BB; assay: SPR (BIAcore B4000); PDGF-BB coupled on C1 chip, antibody injected; apparent value
Procedure: as §1

cynomolgus PDGF-BB [8] = molecular target: T4, cynomolgus PDGF-BB; assay: as above
Procedure: as §1

human PDGF-BB [9] = molecular target: T3, human PDGF-BB; assay: cell-based or functional assay; remark: listed apart in the source
human PDGF-BB [10] = molecular target: T3, human PDGF-BB; assay: SPR; apparent KD** of the IgG
human PDGF-BB [11] = molecular target: T3, human PDGF-BB; assay: ELISA, antigen coated
Procedure: (§3) The binding analysis was carried out using an enzyme-linked immunosorbent assay (ELISA)-based technology. […] The EC₅₀ was calculated with a four parameter logistic model using GraphPad Prism 6.0 software.

rat PDGF-BB [12] = molecular target: T5, rat PDGF-BB (rat, UniProt Q05028 74-182); assay: ELISA, antigen coated
Procedure: as §3

murine PDGF-BB [13] = molecular target: T6, murine PDGF-BB (murine, UniProt P31240 82-190); assay: ELISA, antigen coated
T6 construct: also called muPDGF-BB
Procedure: as §3

cynomolgus PDGF-BB [14] = molecular target: T4, cynomolgus PDGF-BB; assay: ELISA, antigen coated
Procedure: as §3

ANG2 = molecular target: T1, ANG2; assay: cell-based or functional assay
human IL-1beta [15] = molecular target: T7, human IL-1beta (human, UniProt P01584 117-269); assay: cell-based or functional assay
[16] = molecular target: T2, human ANG2-RBD-mouse Fc-region fusion; assay: SPR (BIAcore T200); ANG2-RBD-mouse Fc captured, antibody injected (Example 52)
Procedure: Binding of the bispecific antibody to human ANG2-RBD-mouse Fc-region fusion was investigated by surface plasmon resonance using a BIACORE T200 instrument (GE Healthcare). […] HBS-N (10 mM HEPES, 150 mM NaCl pH 7.4, GE Healthcare) was used as running buffer during the immobilization procedure. For the following kinetic characterization, sample and running buffer was HBS-P (10 mM HEPES, 150 mM NaCl pH 7.4, 0.05% Surfactant P20; GE Healthcare). The flow cell was set to 25° C.—and the sample block set to 12° C.—and primed with running buffer twice prior to kinetic characterization.

human IL-1beta [17] = molecular target: T7, human IL-1beta; assay: cell-based or functional assay; remark: listed apart in the source
human IL-1beta [18] = molecular target: T7, human IL-1beta; assay: SPR (BIAcore T200); antibody captured by anti-human Fc, human IL-1beta injected (Example 52); design: t 1/2: unit not given here
human PDGF-BB [19] = molecular target: T3, human PDGF-BB; assay: SPR (BIAcore T200) kinetic screening; PDGF-BB coupled on C1 chip, antibody injected; remark: listed apart in the source
human PDGF-BB [20] = molecular target: T3, human PDGF-BB; assay: ELISA, antigen coated; remark: listed apart in the source
rat PDGF-BB [21] = molecular target: T5, rat PDGF-BB; assay: ELISA, antigen coated; remark: listed apart in the source
human PDGF-AA = molecular target: T8, human PDGF-AA (human, UniProt P04085 87-211, limits assumed); assay: ELISA, antigen coated
T8 construct: also called huPDGF-AA

murine PDGF-BB [22] = molecular target: T6, murine PDGF-BB; assay: ELISA, antigen coated; remark: listed apart in the source
human PDGF-BB [23] = molecular target: T3, human PDGF-BB; assay: competition ELISA; biotinylated human PDGF-BB with antibody on coated Fc-tagged PDGF-BB receptor (competitor); remark: listed apart in the source
Procedure: as §2

human PDGF-BB [24] = molecular target: T3, human PDGF-BB; assay: SPR; whole antibody
human PDGF-BB [25] = molecular target: T3, human PDGF-BB; assay: cell-based or functional assay; remark: listed apart in the source
human PDGF-BB [26] = molecular target: T3, human PDGF-BB; assay: cell-based or functional assay; remark: listed apart in the source
human PDGF-BB [27] = molecular target: T3, human PDGF-BB; assay: SPR; apparent KD** of the whole antibody
human PDGF-BB [28] = molecular target: T3, human PDGF-BB; assay: SPR; apparent KD of the Fab
human PDGF-BB [29] = molecular target: T3, human PDGF-BB; assay: SPR (BIAcore T200); PDGF-BB coupled on CM3 chip, Fab injected
human PDGF-BB [30] = molecular target: T3, human PDGF-BB; assay: SPR; Fab

T3 sequence (P01127 82-190 limits assumed): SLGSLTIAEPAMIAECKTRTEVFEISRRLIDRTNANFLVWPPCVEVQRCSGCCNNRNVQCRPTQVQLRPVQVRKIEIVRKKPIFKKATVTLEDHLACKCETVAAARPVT
T4 sequence (A0A2K5UX81 entry or part of it): as the sequence (P01127 82-190 limits assumed) above, with I7V counted along it
T5 sequence (Q05028 74-182 limits assumed): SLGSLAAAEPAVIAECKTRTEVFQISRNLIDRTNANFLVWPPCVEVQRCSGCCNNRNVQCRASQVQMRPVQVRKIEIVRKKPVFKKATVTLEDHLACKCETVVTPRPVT
T6 sequence (P31240 82-190 limits assumed): as the sequence (Q05028 74-182 limits assumed) above, with V83I, V102I counted along it

Row | Binder | Balb-C3T3 Proliferation, IC50 (human PDGF-BB [1]) [nM] | Pericytes Migration, IC50 (human PDGF-BB [1]) [nM] | Pericytes Proliferation, IC50 (human PDGF-BB [1]) [nM] | T½ (human PDGF-BB [2]) [min] | Kd (human PDGF-BB [3]) [nM] | Kd (cynomolgus PDGF-BB [4]) [nM] | IC50 (human PDGF-BB [5]) [µg/mL] | koff (human PDGF-BB [6]) [s⁻¹] | t½ (human PDGF-BB [6]) [min] | koff (human PDGF-BB [7]) [s⁻¹] | kon (human PDGF-BB [7]) [M⁻¹ s⁻¹] | koff (cynomolgus PDGF-BB [8]) [s⁻¹] | kon (cynomolgus PDGF-BB [8]) [M⁻¹ s⁻¹] | IC50 Proliferation 3T3 (human PDGF-BB [9]) [µg/mL] | Kd (human PDGF-BB [10]) [nM] | EC50 (human PDGF-BB [11]) [µg/mL] | EC50 (rat PDGF-BB [12]) [µg/mL] | EC50 (murine PDGF-BB [13]) [µg/mL] | EC50 (cynomolgus PDGF-BB [14]) [µg/mL] | other results
1 | antibody 0085 (antibody, V domains shown, Human antibody from a human Ig locus transgenic rabbit) VH: EVQLVESGGGLVQPGGSLRLSCAASGFTFSSYWMSWVRQAPEKGLEWVSTISDGGGLTYYADSVKGRFTISRDNAKNSLYLQMNSLRAEDTAVYYCAESGGYTDWLFGYWGQGTLVTVSS VL: not shown | 0.06 | 0.15 | 0.11 | 146 | 0.0476 | 0.0478 | 0.0178 | 0.000102 | 114 | 4.4e-05 | 930000 | 4.52e-05 | 940000 | 0.0318 | 0.023 | 0.00755 | 0.016 | 0.025 | 0.0153 | 
2 | antibody 0086 (antibody, V domains shown, Human antibody from a human Ig locus transgenic rabbit) VH: EVQLVESGGGLVQPGGSLRLSCAASGFTFSSYWMSWVRQAPEKGLEWVSTISDGGGLTYYADSVKGRFTISRDNAKNSLYLQMNSLRAEDTAVYYCAESGGYTDWLFGYWGQGTLVTVSS VL: not shown | 0.11 | 0.09 | 0.09 | 41 | 0.0218 | 0.0178 | 0.0117 | 7.93e-05 | 146 | 2.3e-05 | 1.04e+06 | 1.84e-05 | 1.04e+06 | 0.056 | 0.03 | 0.012 | 0.0106 | 0.0141 | 0.0162 | 
3 | antibody 0031 (bispecific antibody, V domains shown, CrossMab; also called anti-IL-1beta/ANG2 antibody; bispecific anti-ANG2/IL-1beta antibody) VH 1: QVQLVQSGAEVKKPGASVKVSCKASGYTFTGYYMHWVRQAPGQGLEWIGYISSYNAFTTYNQKFRGRATFTVDTSISTAYMELSRLRSDDTAVYYCVRSDYYGTSLYWGQGTLVTVSS VL 1: EIVLTQSPATLSLSPGERATLSCRASSSVSYMHWSQQKPGQAPRLLIYSTSNLASGIPARFSGSGSGTDFTLTISSLEPEDFAVYYCHQWSNYYTFGQGTKLEIK VH 2: not shown VL 2: SYVLTQPPSVSVAPGQTARITCGGNNIGSKSVHWYQQKPGQAPVLVVYDTSDRPSGIPERFSGSNSGNTATLTISRVEAGDEADYYCQVWDSSSDHWVFGGGTKLTVLSS |  |  |  |  |  |  |  |  |  |  |  |  |  |  |  |  |  |  |  | ANG2 specific pTie2-ELISA, activity against the anti-ANG2/VEGF antibody reported in WO 2014/09465 (ANG2): 6 fold; EC50, reduction of IL-6 expression upon IL-1beta stimulation of A549 cells (human IL-1beta [15]): 0.017 µg/mL; Kd [16]: 8 nM; koff [16]: 0.00115 s⁻¹; kon [16]: 145000 M⁻¹ s⁻¹; t½ [16]: 10.1 min; IC50, inhibition of ICAM-1 expression upon IL-1beta stimulation of A549 cells (human IL-1beta [17]): 0.104 µg/mL; Kd (human IL-1beta [18]): 0.12 nM; koff (human IL-1beta [18]): 0.000302 s⁻¹; kon (human IL-1beta [18]): 2.56e+06 M⁻¹ s⁻¹; t 1/2 (human IL-1beta [18]): 38
4 | PDGF-B-mumAb (antibody, V domains shown, Murine antibody; also called murine anti-human PDGF-B antibody) VH: QVQLQQSGAELMKPGASVKISCKATGYTFSSYWIEWVKQRPGHGLEWIGEILPGSGSTNYNEKFKVKATFTADTSSNTAYMQLSSLTSEDSAVYYCAQTTQDFDSWGQGTTLTVSS VL: DIVLTQSPGSLAVSLGQRATISCRASESVDIYGYSFMHWYQQKPGQPPKLLIYRASNLESGIPARFSGSGSRTDFTLTINPVEADDVATYYCQQSNEDPRTFGGGTKLEIK |  |  |  |  |  |  |  |  |  |  |  |  |  |  |  |  |  |  |  | koff (human PDGF-BB [19]): 0.00045 s⁻¹; t½ (human PDGF-BB [19]): 26 min; EC50 (human PDGF-BB [20]): 0.0163 µg/mL; EC50 (rat PDGF-BB [21]): 0.00512 µg/mL; EC50 (human PDGF-AA): 0.00204 µg/mL; EC50 (murine PDGF-BB [22]): 0.0088 µg/mL; IC50 (human PDGF-BB [23]): 0.0122 µg/mL; T½ (human PDGF-BB [24]): 47.8 min; IC50 Phospho-Inhibition (human PDGF-BB [25]): 0.0017 µg/mL; IC50 Proliferation 3T3 (human PDGF-BB [25]): 0.0551 µg/mL; IC50 Phospho-Inhibition (human PDGF-BB [26]): 0.0017 µg/mL; IC50 Proliferation 3T3 (human PDGF-BB [26]): 0.0551 µg/mL; Kd (human PDGF-BB [27]): 0.042 nM
5 | PDGF-B-mumAb Fab (Fab, V domains shown, Fab fragment of PDGF-B-mumAb) VH: QVQLQQSGAELMKPGASVKISCKATGYTFSSYWIEWVKQRPGHGLEWIGEILPGSGSTNYNEKFKVKATFTADTSSNTAYMQLSSLTSEDSAVYYCAQTTQDFDSWGQGTTLTVSS VL: DIVLTQSPGSLAVSLGQRATISCRASESVDIYGYSFMHWYQQKPGQPPKLLIYRASNLESGIPARFSGSGSRTDFTLTINPVEADDVATYYCQQSNEDPRTFGGGTKLEIK |  |  |  |  |  |  |  |  |  |  |  |  |  |  |  |  |  |  |  | Kd (human PDGF-BB [28]): 5 nM; Kd (human PDGF-BB [29]): 5 nM; koff (human PDGF-BB [29]): 0.00201 s⁻¹; kon (human PDGF-BB [29]): 439000 M⁻¹ s⁻¹; t½ (human PDGF-BB [29]): 5.75 min; T½ (human PDGF-BB [30]): 5.75 min
